Reference: publication PMC9976904, “eIF4A1-dependent mRNAs employ purine-rich 5’UTR sequences to activate localised eIF4A1-unwinding through eIF4A1-multimerisation to facilitate translation”

Target: eIF4A1 DQAD (human, UniProt P60842 1-406, E183Q)
Assay: EMSA; silvestrol; affinity similar to wt; 20 mM HEPES/KOH pH 7.5, 100 mM KCl, 1 mM TCEP, 1% DMSO, 2 mM AMPPNP/MgCl2, 25 C, 60 min; EMSA gels 6-7% acrylamide-TB, 0.5x TB
Settings: protein: recombinant; tags: N-terminal 6xHis-SUMO, cleaved; label: FAM or 5' Dy780

Chain of eIF4A1 DQAD (P60842 whole entry E183Q): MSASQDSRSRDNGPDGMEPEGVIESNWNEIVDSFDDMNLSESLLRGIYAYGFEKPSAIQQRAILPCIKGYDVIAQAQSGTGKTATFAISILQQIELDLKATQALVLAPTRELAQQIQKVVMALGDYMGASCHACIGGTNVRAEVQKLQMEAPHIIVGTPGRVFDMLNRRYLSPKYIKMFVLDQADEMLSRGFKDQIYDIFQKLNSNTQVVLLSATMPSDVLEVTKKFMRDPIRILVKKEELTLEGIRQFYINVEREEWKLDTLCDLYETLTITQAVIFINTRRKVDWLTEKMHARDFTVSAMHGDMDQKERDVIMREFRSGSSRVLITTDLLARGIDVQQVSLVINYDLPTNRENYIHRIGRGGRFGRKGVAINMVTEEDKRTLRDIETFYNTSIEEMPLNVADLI

B1: AG-RNA (20 nt) (ssRNA)
RNA: AGAGAGAGAGAGAGAGAGAG
binding result: binds
